B4: full-length OdhA from Corynebacterium glutamicum ATCC13032 (enzyme, UniProt Q8NRC3 1-1221, looked up)
chain: MSSASTFGQNAWLVDEMFQQFQKDPKSVDKEWRELFEAQGGPNTTPATTEAQPSAPKESAKPAPKAAPAAKAAPRVETKPADKTAPKAKESSVPQQPKLPEPGQTPIRGIFKSIAKNMDISLEIPTATSVRDMPARLMFENRAMVNDQLKRTRGGKISFTHIIGYAMVKAVMAHPDMNNSYDVIDGKPTLIVPEHINLGLAIDLPQKDGSRALVVAAIKETEKMNFSEFLAAYEDIVARSRKGKLTMDDYQGVTVSLTNPGGIGTRHSVPRLTKGQGTIIGVGSMDYPAEFQGASEDRLAELGVGKLVTITSTYDHRVIQGAVSGEFLRTMSRLLTDDSFWDEIFDAMNVPYTPMRWAQDVPNTGVDKNTRVMQLIEAYRSRGHLIADTNPLSWVQPGMPVPDHRDLDIETHNLTIWDLDRTFNVGGFGGKETMTLREVLSRLRAAYTLKVGSEYTHILDRDERTWLQDRLEAGMPKPTQAEQKYILQKLNAAEAFENFLQTKYVGQKRFSLEGAEALIPLMDSAIDTAAGQGLDEVVIGMPHRGRLNVLFNIVGKPLASIFNEFEGQMEQGQIGGSGDVKYHLGSEGQHLQMFGDGEIKVSLTANPSHLEAVNPVMEGIVRAKQDYLDKGVDGKTVVPLLLHGDAAFAGLGIVPETINLAKLRGYDVGGTIHIVVNNQIGFTTTPDSSRSMHYATDYAKAFGCPVFHVNGDDPEAVVWVGQLATEYRRRFGKDVFIDLVCYRLRGHNEADDPSMTQPKMYELITGRETVRAQYTEDLLGRGDLSNEDAEAVVRDFHDQMESVFNEVKEGGKKQAEAQTGITGSQKLPHGLETNISREELLELGQAFANTPEGFNYHPRVAPVAKKRVSSVTEGGIDWAWGELLAFGSLANSGRLVRLAGEDSRRGTFTQRHAVAIDPATAEEFNPLHELAQSKGNNGKFLVYNSALTEYAGMGFEYGYSVGNEDSIVAWEAQFGDFANGAQTIIDEYVSSGEAKWGQTSKLILLLPHGYEGQGPDHSSARIERFLQLCAEGSMTVAQPSTPANHFHLLRRHALSDLKRPLVIFTPKSMLRNKAAASAPEDFTEVTKFQSVINDPNVADAAKVKKVMLVSGKLYYELAKRKEKDGRDDIAIVRIEMLHPIPFNRISEALAGYPNAEEVLFVQDEPANQGPWPFYQEHLPELIPNMPKMRRVSRRAQSSTATGVAKVHQLEEKQLIDEAFEA

Data set [1] concerns the molecule itself. Nature of the data set: crystal structure.
Data set [2] deals with the molecule itself. Nature of the data set: crystal structure. This is another data set of the same source.
Data set [3] addresses B4. The data set is described as follows: cryo-EM structure.
The data set “AUC” deals with the molecule itself. The data set is described as follows: AUC.

We go through 4 molecules from paper doi:10.1101/2023.02.23.529587 (bioRxiv, 2023).

As a reminder, the stoichiometry N is a count of units in the complex or per binding partner.

B1: OdhAΔ97 (domain or fragment, Corynebacterium glutamicum ATCC13032, UniProt Q8NRC3 98-1221, looked up)
chain: KLPEPGQTPIRGIFKSIAKNMDISLEIPTATSVRDMPARLMFENRAMVNDQLKRTRGGKISFTHIIGYAMVKAVMAHPDMNNSYDVIDGKPTLIVPEHINLGLAIDLPQKDGSRALVVAAIKETEKMNFSEFLAAYEDIVARSRKGKLTMDDYQGVTVSLTNPGGIGTRHSVPRLTKGQGTIIGVGSMDYPAEFQGASEDRLAELGVGKLVTITSTYDHRVIQGAVSGEFLRTMSRLLTDDSFWDEIFDAMNVPYTPMRWAQDVPNTGVDKNTRVMQLIEAYRSRGHLIADTNPLSWVQPGMPVPDHRDLDIETHNLTIWDLDRTFNVGGFGGKETMTLREVLSRLRAAYTLKVGSEYTHILDRDERTWLQDRLEAGMPKPTQAEQKYILQKLNAAEAFENFLQTKYVGQKRFSLEGAEALIPLMDSAIDTAAGQGLDEVVIGMPHRGRLNVLFNIVGKPLASIFNEFEGQMEQGQIGGSGDVKYHLGSEGQHLQMFGDGEIKVSLTANPSHLEAVNPVMEGIVRAKQDYLDKGVDGKTVVPLLLHGDAAFAGLGIVPETINLAKLRGYDVGGTIHIVVNNQIGFTTTPDSSRSMHYATDYAKAFGCPVFHVNGDDPEAVVWVGQLATEYRRRFGKDVFIDLVCYRLRGHNEADDPSMTQPKMYELITGRETVRAQYTEDLLGRGDLSNEDAEAVVRDFHDQMESVFNEVKEGGKKQAEAQTGITGSQKLPHGLETNISREELLELGQAFANTPEGFNYHPRVAPVAKKRVSSVTEGGIDWAWGELLAFGSLANSGRLVRLAGEDSRRGTFTQRHAVAIDPATAEEFNPLHELAQSKGNNGKFLVYNSALTEYAGMGFEYGYSVGNEDSIVAWEAQFGDFANGAQTIIDEYVSSGEAKWGQTSKLILLLPHGYEGQGPDHSSARIERFLQLCAEGSMTVAQPSTPANHFHLLRRHALSDLKRPLVIFTPKSMLRNKAAASAPEDFTEVTKFQSVINDPNVADAAKVKKVMLVSGKLYYELAKRKEKDGRDDIAIVRIEMLHPIPFNRISEALAGYPNAEEVLFVQDEPANQGPWPFYQEHLPELIPNMPKMRRVSRRAQSSTATGVAKVHQLEEKQLIDEAFEA
B1: the “stoichiometry N” value in the data set “crystal structure [1]” is 6.

B2: full-length KGD from Mycobacterium smegmatis (enzyme, UniProt A0R2B1 1-1227, looked up)
chain: MSSSPSPFGQNEWLVEEMYRKFRDDPSSVDPSWHEFLVDYSPEPTTDSASNGRTTTAAPVTPPTPAPAPAPEPKAAPKPAAKTEAKPAKPAKSATPAKGDESQILRGAAAAVVKNMNASLEVPTATSVRAIPAKLMIDNRVVINNHLKRTRGGKISFTHLLGYAIVQAVKKFPNMNRHFAVVDGKPTAITPAHTNLGLAIDLQGKDGNRSLVVAAIKRCETMRFGQFIAAYEDIVRRARDGKLTAEDFSGVTISLTNPGTLGTVHSVPRLMQGQGAIIGAGAMEYPAEFQGASEERIADLGIGKLITLTSTYDHRIIQGAESGDFLRTIHQLLLDDDFFDEIFRELGIPYEPVRWRTDNPDSIEDKNARVIELIAAYRNRGHLMADIDPLRLDNTRFRSHPDLDVNSHGLTLWDLDREFKVDGFAGVQRKKLRDILSVLRDAYCRHVGVEYTHILEPEQQRWIQERVETKHDKPTVAEQKYILSKLNAAEAFETFLQTKYVGQKRFSLEGAETVIPMMDAVIDQCAEHGLDEVVIAMPHRGRLNVLANIVGKPYSQIFSEFEGNLNPSQAHGSGDVKYHLGATGTYIQMFGDNDIEVSLTANPSHLEAVDPVLEGLVRAKQDLLDTGEEGSDNRFSVVPLMLHGDAAFAGQGVVAETLNLALLRGYRTGGTIHIVVNNQIGFTTAPTDSRSSEYCTDVAKMIGAPIFHVNGDDPEACAWVARLAVDFRQAFKKDVVIDMLCYRRRGHNEGDDPSMTQPYMYDVIDTKRGSRKAYTEALIGRGDISMKEAEDALRDYQGQLERVFNEVRELEKHEIEPSESVEADQQIPSKLATAVDKAMLQRIGDAHLALPEGFTVHPRVRPVLEKRREMAYEGRIDWAFAELLALGSLIAEGKLVRLSGQDTQRGTFTQRHAVIVDRKTGEEFTPLQLLATNPDGTPTGGKFLVYNSALSEFAAVGFEYGYSVGNPDAMVLWEAQFGDFVNGAQSIIDEFISSGEAKWGQLSDVVLLLPHGHEGQGPDHTSGRIERFLQLWAEGSMTIAMPSTPANYFHLLRRHGKDGIQRPLIVFTPKSMLRNKAAVSDIRDFTESKFRSVLEEPMYTDGEGDRNKVTRLLLTSGKIYYELAARKAKENREDVAIVRIEQLAPLPRRRLAETLDRYPNVKEKFWVQEEPANQGAWPSFGLTLPEILPDHFTGLKRISRRAMSAPSSGSSKVHAVEQQEILDTAFG
As to B2, in the data set “crystal structure [2]”, the “stoichiometry N” value is 6.

B3: OdhI from Corynebacterium glutamicum ATCC13032 (natural protein, UniProt Q8NQJ3 1-143, looked up)
chain: MSDNNGTPEPQVETTSVFRADLLKEMESSTGTAPASTGAENLPAGSALLVVKRGPNAGARFLLDQPTTTAGRHPESDIFLDDVTVSRRHAEFRINEGEFEVVDVGSLNGTYVNREPRNAQVMQTGDEIQIGKFRLVFLAGPAE
In the case of B3, the “stoichiometry N” value in data set [3] was 1.

B4: in the data set “AUC”, the “stoichiometry N” value was found to be 6.
